Assay [1] concerns the target human surface membrane immunoglobulin D (smIgD) (human) (UniProt P01880). The experiment in a line: flow cytometry, dual labelling of human PBMC (CD3 and IgD). In general terms: A flow cytometer gives signals particle by particle.
Assay [2] has the same target. The experiment in a line: flow cytometry, dual labelling of human PBMC (CD14 and IgD).
The target is the same in assay [3]. Kind of assay: cell-based or functional assay.

Sequence of UniProt P01880 (P01880 whole entry): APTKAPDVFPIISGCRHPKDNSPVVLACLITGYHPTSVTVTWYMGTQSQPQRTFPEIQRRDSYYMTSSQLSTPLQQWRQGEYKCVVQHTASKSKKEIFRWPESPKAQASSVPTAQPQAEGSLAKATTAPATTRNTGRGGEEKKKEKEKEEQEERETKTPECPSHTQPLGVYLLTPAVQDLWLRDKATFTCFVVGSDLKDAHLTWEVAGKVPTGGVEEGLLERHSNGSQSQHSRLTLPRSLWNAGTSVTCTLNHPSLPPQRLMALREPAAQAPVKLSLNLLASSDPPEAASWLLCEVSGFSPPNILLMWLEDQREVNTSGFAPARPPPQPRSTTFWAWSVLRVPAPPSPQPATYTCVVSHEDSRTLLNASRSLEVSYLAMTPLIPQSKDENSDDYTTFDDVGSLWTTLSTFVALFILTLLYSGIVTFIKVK

Consider “goat FITC-conjugated anti-human IgD antibody (clone STAR94F)”, for which the percent of CD3+ T-cells labelled for smIgD in assay [1] is 10%. Further, the percent of CD14+ cells labelled for smIgD in assay [2] stood at 54%.

On to “anti-human smIgD antibody (clone STAR94, Serotec, Oxford, UK)”, for which, in assay [3], the proportion of human monocyte population expressing intra-cellular TNF-α after LPS, antibody given 24 hrs before LPS (flow cytometry) is 5% and the proportion of human monocyte population expressing intra-cellular TNF-α, antibody given concurrently with LPS for 4 hours (flow cytometry) stood at 26%.
